Results taken from the supplement of paper PMC12764529.
± gives the half width of the 95% confidence interval.

Experiment: folding stability dG unfold from trypsin proteolysis; higher = more stable
Protocol: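 Folding stability of de novo designed mini-proteins (<80 aa, no Cys; designed by TrROS, TrMRF, ProteinMPNN and the joint model) was measured by cDNA display proteolysis with trypsin and chymotrypsin. Each protease was used at 11 concentrations in a threefold dilution series plus a no-protease condition. K50 was inferred by Bayesian fitting of sequencing counts, and dG unfold was derived against a sequence-predicted unfolded-state K50 (Tsuboyama et al. method). Sequences shown include variable-length N-terminal GS-type padding (SAGGSAGG...) inside a display construct carrying a PA tag. Rows were kept only if the AF2 dimer inter-PAE was >15, to exclude likely homo-oligomers.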

Going from “SAGMEIKIEKLEDGTYKITIKLYNKETNEEIEEIEIEVKKLKDGTYKVKIKIKNKETGKEFELEFEIKPSAG [r5_610_TrROS_Hall]” to “SAGGSAGGSAGGKPKITITQEQHPNGMHRVNVRNPNGKPIGEVPFDSPQQLEEAKEFLLDSAGGSAGGSAGG [r7_476_TrROS]”, the “folding stability dG unfold” value falls from 4.02 ± 0.34 kcal/mol to -0.608 ± 0.3 kcal/mol.

First: SAGGSAGGSAGGEESRRVTVTETVYPVYPGVGIIRVTRTVTTPDATTTSTTLVFVPPGLPSAGGSAGGSAGG [r17_465_JUSTAS]
Second: SAGGSAGGSAGGSDELLKELAQENGMKVTAEPMPEEGHFNIEVQSPNGKPIEIEIPLDDSAGGSAGGSAGGS [r4_121_TrROS]
The “folding stability dG unfold” value of the first is lower: -0.433 ± 0.24 kcal/mol for the first, 0.128 ± 0.15 kcal/mol for the second.

“SAGGSEVRELAEAIAAARGLPLRAIETKEVTPDTVEITMELPDDRTLTVTVPRSPEGGYEVTVTEDASAGGS [r8_284_JUSTAS]” and “SAGGSAGGSGSMAEVEAIVERAKELGLVPKSITTDPATNKPVVDLQPPSPELLEADPEILALLSAGGSAGGS [r12_482_JUSTAS]” are within error of each other in “folding stability dG unfold” value: -0.349 ± 0.26 kcal/mol for the first, -0.585 ± 0.23 kcal/mol for the second.

Compared with “SAGGSAGGSAGGTAKELVNEIAKEFMQDHPNQEIPIEVEVRTNGKPVKAEIPIRLPPGQSAGGSAGGSAGGS [r10_1204_TrROS]”, “SAGGMVSPEVVKAALDDGNPLPLSEIVARIEAETGLPVEVETGDDSFRIVIRDPNRDVELSSETILLSAGGS [r8_105_JUSTAS]” is higher in “folding stability dG unfold” value: -0.402 ± 0.07 kcal/mol for the first, 0.292 ± 0.057 kcal/mol for the second.

First: SAGGGGMPAVKEEVTPVPGGVLTTTTLPDGSVKVTVSPPSGPAVASATKPVPSGSSVTVTVTLRPAALSAGG [r13_584_JUSTAS]
Second: SAGGKWYVMVKYEWRNPDNGKERNIQVPINREALQEGDLEEAVEEAKKFAREWGYPIKKVEINLMPPGSAGG [r13_954_TrROS]
The “folding stability dG unfold” value of the first is higher: 0.367 ± 0.019 kcal/mol for the first, -0.106 ± 0.17 kcal/mol for the second.

Compared with “SAGGSAGGSAMRVVEITVPPENPEELKREIAEAFPFEVEGEEVGDGSVTLRFILPEDVELGSAGGSAGGSAG [r3_457_TrMRF]”, “SAGGSAGGKKVFLPYSVISTVVPKHFPGDEKQALIDAEFLAKKAEEAGFKDVDFVISPVPPGAPSAGGSAGG [r6_545_TrMRF]” is lower in “folding stability dG unfold” value: 0.142 ± 0.097 kcal/mol for the first, -0.467 ± 0.23 kcal/mol for the second.

“SAGGSAGGSMPLRLAPVPIFLPEEEAVPVIEKLIEEGTEGGVGLIVPNVISPEEAGVHPDEPVSAGGSAGGS [r12_93_TrMRF]” and “SAGGSAGGSAGGSNIILIPAKPGEEFKIKINGRPLKIQRDKDKPGYIMIEFPDGQWQPISAGGSAGGSAGGS [r4_488_TrROS]” are within error of each other in “folding stability dG unfold” value: -0.263 ± 0.08 kcal/mol for the first, -0.041 ± 0.2 kcal/mol for the second.

Going from “SAEIEELARKLAEELGAEVVEVKVEKLPNGTVKVTVVVRVNGELYKVTIEYDKETKEITIKIEKLPEEESAG [r14_784_TrROS_Hall]” to “SAGGSAGGSAGFLVLVTDVKENPETGTFSIYLPSTGSVKTFPPNTKAVIPAAPDEPVFVAPESAGGSAGGSA [r18_329_TrMRF]”, the “folding stability dG unfold” value falls from 3.81 ± 0.48 kcal/mol to -0.314 ± 0.11 kcal/mol.

“SAGGSAGGSAGPPVLVSINPDENATVEVRTRPDGKPVLLFTVPKTGEVLVVHPDGKIDNSSAGGSAGGSAGG [r11_601_TrMRF]” and “SAGGSAGGSMLTITVKTTDPAKGGSATTVIPVPVPGSVEEARELAEEIKKKLPPEVVEITVLESAGGSAGGS [r12_871_JUSTAS]” are within error of each other in “folding stability dG unfold” value: -0.0916 ± 0.17 kcal/mol for the first, -0.294 ± 0.19 kcal/mol for the second.

“SAGGSMPITVSVPVPPDVPLEEVAERIEKELREAGIEADVREVTRVPGEGRILLHFDAGKTGVIPASAGGSA [r2_242_JUSTAS]” and “SAGGSAGGSSVLRVTVEIPETGETVELTVPPSVTEEDVRARIEAEGHAIEKIEVTESEVPPLASAGGSAGGS [r12_955_JUSTAS]” are within error of each other in “folding stability dG unfold” value: -0.251 ± 0.12 kcal/mol for the first, -0.358 ± 0.096 kcal/mol for the second.

Compared with “SKKWKVDLDIQEDPDNGTVIGMVRVESEDGEKRPPPEEIARELAEKLREKGYKVEAEPHPGWFMITVKPPSA [r9_510_TrROS]”, “SAGNIKKGSIYMPEDGWMIKIEYPDPGKEIHIPFDDDLSEIKDNLEEPGFEPVAVEVEPFPPGQPMEISAGG [r19_386_TrROS]” is lower in “folding stability dG unfold” value: 0.371 ± 0.24 kcal/mol for the first, -1.05 ± 0.22 kcal/mol for the second.

Going from “SAGGSAGGSSAEEIAKELGYKEIEVKPLRPVSTETLDSGGYSQKTEYVTTIKLPDGTEIEIPVSAGGSAGGS [r12_221_JUSTAS]” to “SASLENGGVKTVEDTEYDPATNTVTFKKVTTYYGDEVLSTSTATVPLPPKPLPPPPVVERDPTNPRYLESAG [r14_571_JUSTAS]”, the “folding stability dG unfold” value falls from 0.788 ± 0.025 kcal/mol to -0.368 ± 0.91 kcal/mol.

Compared with “SAGGSAGGSAGMKIVAPSKEEAEKIAKELAKELGLPDEIKDLEIEVIPLKPTPDGGFIPYSAGGSAGGSAGG [r17_237_TrMRF]”, “MAVTPEVLERMREEGVPEEVLAELGEVAVPSSDPRPEYIAELRALPGVSEVSPIPPTDPAALAALPERLLES [r1_248_JUSTAS]” is lower in “folding stability dG unfold” value: -0.168 ± 0.17 kcal/mol for the first, -0.884 ± 0.54 kcal/mol for the second.

First: SAGGSASVPPGKSVTLRISFPETGEERTITLDVKSSEELEAAAELEVPRPDGTPVPVTVSVVETVPSAGGSA [r15_797_JUSTAS]
Second: SAGKVEVKVDEETGTVTVTVEVNGELVEKKVEVKPPPPVKVFSAEELRERNPELKKLLEENPDKLVVLESAG [r5_957_TrROS_Hall]
The “folding stability dG unfold” value of the first is higher: 0.386 ± 0.094 kcal/mol for the first, -0.473 ± 0.26 kcal/mol for the second.

Going from “SAGGSAGGSAGGSMIVDTKVPENSVAYTPDGKKIGPEEVKKALEEGLGYIGSTPVPPGLSAGGSAGGSAGGS [r4_47_JUSTAS]” to “SAGGSAEKLEEAIEEAKKVPEGAEVPILITVEKDGKPVVFEVKITRLPKEKKIKIDPLKAYLPEEFSAGGSA [r15_724_TrMRF]”, the “folding stability dG unfold” value falls from 0.127 ± 0.029 kcal/mol to -0.63 ± 0.39 kcal/mol.

“SAGGSAGGSAGGMYVIKITMGDRPRSIMVPPDNPEEIKNQLRDLGYNIKEISVERFPPGSAGGSAGGSAGGS [r10_405_TrROS]” and “SAGGSAGGSMIVEKKYSLDPAKGTITTTTTTVTPVPNGDSLIVSTTTTTKSVSPSESPDISSSSAGGSAGGS [r12_700_JUSTAS]” are within error of each other in “folding stability dG unfold” value: -0.749 ± 0.61 kcal/mol for the first, -0.39 ± 0.066 kcal/mol for the second.

Compared with “SAGGSAGGSAGGMVVTVKVGDETIEIDTETGTATVTPPATGTTTTVPASEVEPITPELLSAGGSAGGSAGGS [r10_709_JUSTAS]”, “SAGGSAGGSKIEMMHAIRDNGKPFFVRITMDIQPQKDPNGEPKVNFEPKIEIYDPDGKPIFEISAGGSAGGS [r20_224_TrROS]” is lower in “folding stability dG unfold” value: 0.945 ± 0.076 kcal/mol for the first, 0.641 ± 0.14 kcal/mol for the second.

Compared with “GMAEELAVEKAKEYLAPIPKPYEIDPEKKTVTLPGGGPLKTIPILVTVKDENGNVIKVIEVPIKVVSIPPGS [r1_318_JUSTAS]”, “SAGNPKIIEEETIPMPDGGPMKIYVDPEAPRIEIYNPDNGKPEEFPIPPGEKLEFPMPPDGWMTVKVLSAGG [r19_118_TrROS]” is lower in “folding stability dG unfold” value: 0.0543 ± 0.093 kcal/mol for the first, -0.279 ± 0.14 kcal/mol for the second.

“SAGGSAGGSWPFRIEIYNPENGKEEVKDIPGDLDELKDLIPPGYRVKIEFGDEEITIPIDDIKSAGGSAGGS [r20_36_TrROS]” and “SAGGSAGGSAGGMTITLEFTTEEEVEAYAKEIGATKVEVTREKTETPEERIKATIEKPGSAGGSAGGSAGGS [r10_494_JUSTAS]” are within error of each other in “folding stability dG unfold” value: -0.331 ± 0.16 kcal/mol for the first, -0.365 ± 0.74 kcal/mol for the second.

First: SAGGMTSYSVTVELPETGKKITITVPNNDPNVTPEKAAAEAEKRIKAEKEKIKKELEKKPKKPSSKLKSAGG [r13_126_JUSTAS]
Second: SAGGSASIDELKEEILAKTPPDVVTTGYATSSDSLSTRTYSTPAGHRVVISYTDNEIKSVSLEKAGSAGGSA [r15_175_JUSTAS]
The “folding stability dG unfold” value of the first is lower: -0.907 ± 0.93 kcal/mol for the first, 0.333 ± 0.16 kcal/mol for the second.

“SAGGSAGGSVKELAKKLNIKEVKVEPVDGEKVTLIKIKVKNKKTKKEYEKTILIKDKKTGKILSAGGSAGGS [r12_133_TrROS_Hall]” and “SAGGSAGGGMVTVEIPLEVTLTTSLTPEPGTAQTVTLPVVVTIEFPPGNPEKLKKEVEKIKKKSSAGGSAGG [r6_280_JUSTAS]” are within error of each other in “folding stability dG unfold” value: -0.405 ± 0.23 kcal/mol for the first, -0.456 ± 0.2 kcal/mol for the second.

Compared with “SAGGSAGGSAGGMIEIEVEKEEEVKELAEKFGFKVEAEKIEDGKIIAKIEFIPEEELKKSAGGSAGGSAGGS [r10_218_TrMRF]”, “SAKPIPAKDITINMHPPPGGNFNFEIELDDKEIGEHPFKSPEDMQEGMKEIAKELAALLGPDDIKIKPWSAG [r14_791_TrROS]” is higher in “folding stability dG unfold” value: -0.839 ± 0.24 kcal/mol for the first, 0.4 ± 0.075 kcal/mol for the second.

Going from “SAGGSAGGSAGGEPVSFLVKTPEDRWYPAVAIPETGEVLVEVPNEVRVLPADAEFEVSPASAGGSAGGSAGG [r7_434_TrMRF]” to “SAGGSAGGSAGGSALDPSAKVTVDRGDGKLVAVHVYPPGGKPVVILLPEEDAKKILEEVSAGGSAGGSAGGS [r4_16_TrMRF]”, the “folding stability dG unfold” value rises from -0.0127 ± 0.11 kcal/mol to 0.416 ± 0.031 kcal/mol.

In the case of “SAGGSAGGSAGGRTIHINGATPERIIKWLKEWPPDEPVEIHYHGPNNKHREIPIDELKKSAGGSAGGSAGGS [r10_732_TrROS]”, the “folding stability dG unfold” value is reported as -0.0271 ± 0.1 kcal/mol.
